One data set deals with T1, NocΔCTD-His6 (Bacillus subtilis, UniProt P37524 1-242).
T1 sequence: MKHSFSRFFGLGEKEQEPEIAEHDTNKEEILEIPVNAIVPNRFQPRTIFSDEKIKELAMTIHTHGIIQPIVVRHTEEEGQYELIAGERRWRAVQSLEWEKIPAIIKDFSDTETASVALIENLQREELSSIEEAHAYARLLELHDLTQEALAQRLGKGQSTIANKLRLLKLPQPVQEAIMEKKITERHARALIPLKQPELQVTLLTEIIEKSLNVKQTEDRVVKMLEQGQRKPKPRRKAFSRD
Briefly: X-ray crystallography.

The data set “crystal structure” deals with the molecule itself. The data set is described as follows: crystal structure.

B1: 16-bp NBS (dsDNA)
DNA 1: TATTTCCCGGGAAATA
DNA 2: TATTTCCCGGGAAATA
With B1, the binding result with NocΔCTD-His6 is listed as “binds”.

B2: Bacillus subtilis NocΔCTD-His6 (domain or fragment, UniProt P37524 1-242, looked up)
chain: T1 sequence
By stoichiometry N is commonly meant a count of units in the complex or per binding partner. Turning to B2, the “stoichiometry N” value in the data set “crystal structure” was 2.

The values are drawn from paper doi:10.1101/2022.02.28.481274 (bioRxiv, 2022).
